From publication PMC8644300

What was measured:
[1] = biological target: K+ exchange antiporter 3 (KEA3), native KEA3.2 isoform (Arabidopsis thaliana (endogenous in Col-0)) (UniProt Q9M0Z3); assay: native gel or EMSA; Blue Native PAGE of thylakoid membranes solubilized with 0.7% β-DM, blotted and detected with the antibody against the KEA3 C-terminus; native protein marker for size
[2] = biological target: recombinant KEA3 C-terminus (Arabidopsis thaliana); assay: native gel or EMSA; native gel electrophoresis (without SDS) of the SEC fraction with the KEA3 C-terminus, in phosphate-buffered saline pH 8
[3] = biological target: recombinant KEA3 C-terminus (Arabidopsis thaliana); assay: SEC; Superdex 200 Increase 10/300 GL, calibrated with low and high molecular weight kits; Ni-NTA eluate treated with 2 mM EDTA to remove residual Ni2+ before the run

| Substance | stoichiometry N [1] | stoichiometry N [2] | stoichiometry N [3] |
| --- | --- | --- | --- |
| K+ exchange antiporter 3 (KEA3), native KEA3.2 isoform (from UniProt Q9M0Z3-1 73-776) (natural protein) | 2 | – | – |
| recombinant KEA3 C-terminus (domain or fragment) | – | 2 | 2 |
